PMC5381662 (Cell reports, 2016)
Like-named read-outs stand apart in the source and are kept apart here. Values belong to the binder of their own block, whether it stands above or below them.

Experiments:
Test in all cases: pull-down
Strep II-tagged UAF1 [1] = target: T1, Strep II-tagged UAF1 (UniProt Q8TAF3 1-677)
[2] = target: Strep II-tagged UAF1 K595E/H599A double mutant (UniProt Q8TAF3 1-677, K595E | H599A)
[3] = target: Strep II-tagged UAF1 K459E (UniProt Q8TAF3 1-677, K459E)
[4] = target: Strep II-tagged UAF1 K595E (UniProt Q8TAF3 1-677, K595E)
Strep II-tagged UAF1 K595E, sequence (Q8TAF3 whole entry K595E): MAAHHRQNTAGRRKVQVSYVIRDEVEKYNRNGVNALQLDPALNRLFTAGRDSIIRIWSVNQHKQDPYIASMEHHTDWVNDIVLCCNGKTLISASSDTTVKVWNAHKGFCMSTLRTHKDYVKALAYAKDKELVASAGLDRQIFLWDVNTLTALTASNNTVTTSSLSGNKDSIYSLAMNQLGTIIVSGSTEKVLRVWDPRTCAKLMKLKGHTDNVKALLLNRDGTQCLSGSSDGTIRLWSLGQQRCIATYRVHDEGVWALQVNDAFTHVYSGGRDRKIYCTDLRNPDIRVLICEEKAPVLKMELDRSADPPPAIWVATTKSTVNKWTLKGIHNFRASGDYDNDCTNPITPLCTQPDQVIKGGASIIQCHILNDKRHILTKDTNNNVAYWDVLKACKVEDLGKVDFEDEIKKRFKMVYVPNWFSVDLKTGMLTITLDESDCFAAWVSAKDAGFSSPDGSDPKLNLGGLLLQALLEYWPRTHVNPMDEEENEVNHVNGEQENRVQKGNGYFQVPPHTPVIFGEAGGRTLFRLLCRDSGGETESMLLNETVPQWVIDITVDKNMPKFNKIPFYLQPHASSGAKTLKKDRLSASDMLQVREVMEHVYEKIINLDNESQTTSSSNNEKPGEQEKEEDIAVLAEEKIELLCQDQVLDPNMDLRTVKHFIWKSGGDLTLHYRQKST

[5] = target: Strep II-tagged UAF1 H599A (UniProt Q8TAF3 1-677, H599A)
Strep II-tagged UAF1 H599A, sequence (Q8TAF3 whole entry H599A): as the sequence (Q8TAF3 whole entry K595E) above, with E595K, H599A counted along it

Strep II-tagged UAF1 [6] = target: T1, Strep II-tagged UAF1; remark: listed apart in the source
RAD51 = target: T2, RAD51 (UniProt Q06609 1-339)
T2 sequence (looked up): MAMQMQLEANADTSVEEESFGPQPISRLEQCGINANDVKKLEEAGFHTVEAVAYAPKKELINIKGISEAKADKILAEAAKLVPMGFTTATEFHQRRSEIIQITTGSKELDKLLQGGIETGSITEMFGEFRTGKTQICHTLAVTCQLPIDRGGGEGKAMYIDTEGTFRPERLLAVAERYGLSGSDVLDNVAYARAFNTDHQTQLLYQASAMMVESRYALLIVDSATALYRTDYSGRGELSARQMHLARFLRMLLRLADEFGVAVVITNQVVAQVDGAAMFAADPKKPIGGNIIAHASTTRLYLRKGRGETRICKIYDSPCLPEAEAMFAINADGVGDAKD

Strep II-tagged UAF1 [7] = target: T1, Strep II-tagged UAF1; remark: listed apart in the source

T1 sequence (Q8TAF3 whole entry): as the sequence (Q8TAF3 whole entry K595E) above, with E595K counted along it
Strep II-tagged UAF1 K595E/H599A double mutant, sequence (Q8TAF3 whole entry K595E/H599A): as the sequence (Q8TAF3 whole entry K595E) above, with H599A counted along it
Strep II-tagged UAF1 K459E, sequence (Q8TAF3 whole entry K459E): as the sequence (Q8TAF3 whole entry K595E) above, with K459E, E595K counted along it

B1: GST-tagged RAD51AP1 (natural protein, UniProt Q96B01-2 1-335, looked up)
chain: MVRPVRHKKPVNYSQFDHSDSDDDFVSATVPLNKKSRTAPKELKQDKPKPNLNNLRKEEIPVQEKTPKKRMALDDKLYQRDLEVALALSVKELPTVTTNVQNSQDKSIEKHGSSKIETMNKSPHISNCSVASDYLDLDKITVEDDVGGVQGKRKAASKAAAQQRKILLEGSDGDSANDTEPDFAPGEDSEDDSDFCESEDNDEDFSMRKSKVKEIKKKEVKVKSPVEKKEKKSKSKCNALVTSVDSAPAAVKSESQSLPKKVSLSSDTTRKPLEIRSPSAESKKPKWVPPAASGGSRSSSSPLVVVSVKSPNQSLRLGLSRLARVKPLHPNATST
binding result (Strep II-tagged UAF1 [1]): binds
binding result [2]: binds
binding result [3]: binds
binding result [4]: binds
binding result [5]: binds

B2: RAD51AP1 (no tag named) (natural protein, UniProt Q96B01-2 1-335, looked up)
chain: MVRPVRHKKPVNYSQFDHSDSDDDFVSATVPLNKKSRTAPKELKQDKPKPNLNNLRKEEIPVQEKTPKKRMALDDKLYQRDLEVALALSVKELPTVTTNVQNSQDKSIEKHGSSKIETMNKSPHISNCSVASDYLDLDKITVEDDVGGVQGKRKAASKAAAQQRKILLEGSDGDSANDTEPDFAPGEDSEDDSDFCESEDNDEDFSMRKSKVKEIKKKEVKVKSPVEKKEKKSKSKCNALVTSVDSAPAAVKSESQSLPKKVSLSSDTTRKPLEIRSPSAESKKPKWVPPAASGGSRSSSSPLVVVSVKSPNQSLRLGLSRLARVKPLHPNATST
binding result (Strep II-tagged UAF1 [6]): binds
binding result (RAD51): binds

B3: RAD51AP1 1-145 fragment (domain or fragment, UniProt Q96B01-2 1-145, looked up)
chain: MVRPVRHKKPVNYSQFDHSDSDDDFVSATVPLNKKSRTAPKELKQDKPKPNLNNLRKEEIPVQEKTPKKRMALDDKLYQRDLEVALALSVKELPTVTTNVQNSQDKSIEKHGSSKIETMNKSPHISNCSVASDYLDLDKITVEDD
binding result (Strep II-tagged UAF1 [7]): binds

Results, then the binder that gave them:

binding result (Strep II-tagged UAF1 [7]): binds
B4: RAD51AP1 fragment, amino acid residues 95-187 (domain or fragment, UniProt Q96B01-2 95-187, looked up)
chain: TVTTNVQNSQDKSIEKHGSSKIETMNKSPHISNCSVASDYLDLDKITVEDDVGGVQGKRKAASKAAAQQRKILLEGSDGDSANDTEPDFAPGE

binding result (Strep II-tagged UAF1 [7]): binds
B5: RAD51AP1 ΔN25 mutant (domain or fragment, UniProt Q96B01-2 26-335, looked up)
chain: VSATVPLNKKSRTAPKELKQDKPKPNLNNLRKEEIPVQEKTPKKRMALDDKLYQRDLEVALALSVKELPTVTTNVQNSQDKSIEKHGSSKIETMNKSPHISNCSVASDYLDLDKITVEDDVGGVQGKRKAASKAAAQQRKILLEGSDGDSANDTEPDFAPGEDSEDDSDFCESEDNDEDFSMRKSKVKEIKKKEVKVKSPVEKKEKKSKSKCNALVTSVDSAPAAVKSESQSLPKKVSLSSDTTRKPLEIRSPSAESKKPKWVPPAASGGSRSSSSPLVVVSVKSPNQSLRLGLSRLARVKPLHPNATST

binding result (Strep II-tagged UAF1 [7]): binds
B6: RAD51AP1 H329A mutant (natural protein, UniProt Q96B01-2 1-335, looked up)
chain: MVRPVRHKKPVNYSQFDHSDSDDDFVSATVPLNKKSRTAPKELKQDKPKPNLNNLRKEEIPVQEKTPKKRMALDDKLYQRDLEVALALSVKELPTVTTNVQNSQDKSIEKHGSSKIETMNKSPHISNCSVASDYLDLDKITVEDDVGGVQGKRKAASKAAAQQRKILLEGSDGDSANDTEPDFAPGEDSEDDSDFCESEDNDEDFSMRKSKVKEIKKKEVKVKSPVEKKEKKSKSKCNALVTSVDSAPAAVKSESQSLPKKVSLSSDTTRKPLEIRSPSAESKKPKWVPPAASGGSRSSSSPLVVVSVKSPNQSLRLGLSRLARVKPLAPNATST
